The values below come from patent publication US6100053A, “Microbial transglutaminases, their production and use” (priority 1994, dated 2000).

Test [1] concerns TGase from Bacteridium (DSM 10093). Put plainly: PMSF inhibition, putrescine assay. The conditions noted are these: 1.6 mM PMSF; 1 h, 30° C., pH 8.5, α-casein + EDTA; -PMSF = 100. Type of test: biochemical, Bacteridium sp. DSM 10093. On the procedure:
(§1) Each of these washes takes place for 5 min. […] The washed filters are counted directly in scintillation vials.
(§2) A putrescine control assay was performed to investigate whether TGases from different bacterial strains are sensitive to PMSF (phenyl methyl sulfonyl fluoride).
(§3) The assay was run under optimized conditions (see examples 1-3), i.e. 1 h incubation at 30° C., pH 8.5 (2% α-casein+EDTA in 100 mM modified Britton-Robinson-buffer 0.1 M, pH 8.5). Final concentration of PMSF was 1.6 mM. As control an assay including propanol was included: propanol is the solvent of PMSF. This assay ensures that solvent effects are excluded. The assay contained 0.9 M 2-propanol i.e. the same concentration as in PMSF containing assay (addition of 8 μl propanol from 13 M instead of 8 μl PMSF in 2-propanol).

Test [2] has as its system TGase from Bacteridium (CBS 495.74). Put plainly: PMSF inhibition, putrescine assay. Format: biochemical, Bacteridium sp. CBS 495.74. The conditions noted are these: 1.6 mM PMSF; 1 h, 30° C., pH 8.5, α-casein + EDTA; -PMSF = 100. On the procedure: as §1, §2, §3
The subject of test [3] is TGase from strain Moo5A10. The test is described as follows: PMSF inhibition, putrescine assay. As to conditions: 1.6 mM PMSF; 1 h, 30° C., pH 8.5, α-casein + EDTA; -PMSF = 100. Type of test: biochemical, Moo5A10 (DSM 10094). On the procedure: as §1, §2, §3
For test [4], the system named is TGase from Bacillus aneurinolyticus. The test is described as follows: PMSF inhibition, putrescine assay. Format: biochemical. The conditions noted are these: 1.6 mM PMSF; 1 h, 30° C., pH 8.5, α-casein + EDTA; -PMSF = 100. The method, then: as §1, §2, §3
The subject of test [5] is TGase from Bacillus badius. Put plainly: PMSF inhibition, putrescine assay. Type of test: biochemical. As to conditions: 1.6 mM PMSF; 1 h, 30° C., pH 8.5, α-casein + EDTA; -PMSF = 100. On the procedure:
as §1, §2, §3

For test [6], the system named is TGase from Bacillus firmus. The test is described as follows: PMSF inhibition, putrescine assay. As to conditions: 1.6 mM PMSF; 1 h, 30° C., pH 8.5, α-casein + EDTA; -PMSF = 100. Type of test: biochemical. The method, then: as §1, §2, §3
Test [7] relates to TGase from Bacillus mycoides. The test is described as follows: PMSF inhibition, putrescine assay. Type of test: biochemical. As to conditions: 1.6 mM PMSF; 1 h, 30° C., pH 8.5, α-casein + EDTA; -PMSF = 100. The method, then: as §1, §2, §3
Test [8] has as its target T1, TGase from Streptomyces lydicus (Streptomyces nigrescens, UniProt A0ABY7I822).
T1 construct: mature 331 aa, N-terminus […]
T1 sequence (A0ABY7I822 88-418): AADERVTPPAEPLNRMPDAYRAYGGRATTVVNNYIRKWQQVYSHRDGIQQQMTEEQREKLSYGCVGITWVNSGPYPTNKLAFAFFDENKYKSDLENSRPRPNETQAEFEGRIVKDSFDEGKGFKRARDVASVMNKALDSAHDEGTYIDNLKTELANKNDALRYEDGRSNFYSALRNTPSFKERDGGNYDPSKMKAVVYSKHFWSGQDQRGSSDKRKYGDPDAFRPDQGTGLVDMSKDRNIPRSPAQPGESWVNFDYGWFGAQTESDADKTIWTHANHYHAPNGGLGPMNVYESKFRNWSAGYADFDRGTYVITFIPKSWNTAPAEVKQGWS
The test is described as follows: PMSF inhibition, putrescine assay. Type of test: biochemical. The method, then:
as §1, §2, §3

Test [9] addresses T2, purified transglutaminase from S. mobaraense (Streptomyces mobaraensis, UniProt P81453).
T2 sequence (P81453 77-407): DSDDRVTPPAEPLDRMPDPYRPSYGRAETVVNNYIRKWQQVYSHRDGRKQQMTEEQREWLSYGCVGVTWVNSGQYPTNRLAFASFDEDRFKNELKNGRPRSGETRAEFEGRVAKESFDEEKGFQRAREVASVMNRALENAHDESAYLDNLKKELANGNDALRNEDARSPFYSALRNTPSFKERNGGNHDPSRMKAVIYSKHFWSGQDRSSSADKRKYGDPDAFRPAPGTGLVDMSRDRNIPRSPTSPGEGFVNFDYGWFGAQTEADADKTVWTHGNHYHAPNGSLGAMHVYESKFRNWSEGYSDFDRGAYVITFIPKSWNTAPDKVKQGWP
The test is described as follows: PMSF sensitivity of purified transglutaminase. Type of test: biochemical, Streptoverticillium mobaraense. The method, then:
as §2

For test [10], the target named is Ca2+-independent transglutaminase from Streptomyces platensis (Streptomyces platensis, UniProt A5PHK5). As to conditions: 50 μM inhibitor, nine fold molar excess to cysteine; 2 h at room temperature in the putrescine assay; duplicate.
For test [11], the target named is transglutaminase from S. mobaraense (Streptomyces mobaraensis, UniProt P81453). As to conditions: 1 mM inhibitor, preincubation 30 min at 25° C.; cited from earlier work.
Test [12] has as its target α-casein.
In test [13] the target is α-casein. This is another data set of the same source.

Read-outs that look alike come from different tables or passages of the source.

Ca2+-independent transglutaminase from Streptomyces platensis, sequence (A5PHK5 88-418): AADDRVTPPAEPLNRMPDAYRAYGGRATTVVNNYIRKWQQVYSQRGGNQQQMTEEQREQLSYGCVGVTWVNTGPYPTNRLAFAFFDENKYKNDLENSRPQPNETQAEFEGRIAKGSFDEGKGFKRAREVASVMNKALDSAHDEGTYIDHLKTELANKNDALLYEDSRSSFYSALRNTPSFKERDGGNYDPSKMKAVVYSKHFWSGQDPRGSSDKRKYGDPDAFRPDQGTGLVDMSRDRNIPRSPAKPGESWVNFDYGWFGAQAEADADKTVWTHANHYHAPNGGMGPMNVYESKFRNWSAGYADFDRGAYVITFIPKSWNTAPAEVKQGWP

Take `O=S(=O)(F)Cc1ccccc1` [PMSF, phenylmethylsulfonylfluoride]: the “Relative activity (%) +PMSP” value in test [1] is given as 75%; in [2] it was 75%; in test [3] it was 75%; in test [4], 47%; in test [5] it was 62%; in test [6] it was 55%. The “Relative activity (%) +PMSP” value in test [7] is 35%; in [8] (1.6 mM PMSF, 1 h, 30° C., pH 8.5, α-casein + EDTA, -PMSF = 100), 175%. The “sensitivity to PMSF” value in test [8] (purified transglutaminase) and in test [9] was “insensitive” each time. By residual activity is commonly meant the signal under treatment as a percentage of the control signal. For the compound `O=C(O)CI` [mono-iodoacetic acid], the residual activity result in [10] is “no residual activity”; in test [11], 76%. Consider “Ca2+-independent transglutaminase from Streptomyces platensis (enzyme)”, for which the Units/ml (putrescine assay) with α-casein [12] was found to be 1.4 units/ml. “TGase sample of B. amyloliquefaciens (pool or library)” returned a Units/ml (putrescine assay) in the test with α-casein [12] of 0.06 units/ml. “TGase sample of Bacillus aneurinolyticus (pool or library)” came in with a Units/ml (putrescine assay) with α-casein [12] of 0.8 units/ml. “TGase sample of Bacillus badius (pool or library)” gave a Units/ml (putrescine assay) with α-casein [12] of 0.8 units/ml. “TGase sample of Bacillus firmus, ATCC 17060 (pool or library)” yielded a Units/ml (putrescine assay) in the test with α-casein [12] of 0.6 units/ml. In the test with α-casein [12], “TGase sample of Bacillus firmus, DSM 12 (pool or library)” yielded a Units/ml (putrescine assay) of 0.03 units/ml. With “TGase sample of Bacillus megaterium, AJ 3355 (pool or library)”, the Units/ml (putrescine assay) in the test with α-casein [12] came out at 0.03 units/ml. In the test with α-casein [12], “TGase sample of Bacillus megaterium, ATCC 13632 (pool or library)” registered a Units/ml (putrescine assay) of 0.02 units/ml. Turning to “TGase sample of Bacillus megaterium, ATCC 15450 (pool or library)”, the Units/ml (putrescine assay) with α-casein [12] turned out to be 0.02 units/ml. On to “TGase sample of Bacillus mycoides (pool or library)”, for which the Units/ml (putrescine assay) in the test with α-casein [12] came out at 0.4 units/ml. In the test with α-casein [12], “TGase sample of Bacillus sp., ATCC 21537 (pool or library)” displayed a Units/ml (putrescine assay) of 0.1 units/ml.

“TGase sample of Bacteridium sp., CBS 495.74 (pool or library)” had a Units/ml (putrescine assay) with α-casein [12] of 0.5 units/ml. Regarding “TGase sample of Bacteridium sp., DSM 10093 (pool or library)”, the Units/ml (putrescine assay) with α-casein [12] came out at 0.3 units/ml. For “TGase sample of Hafnia alvei (pool or library)”, the Units/ml (putrescine assay) with α-casein [12] was 0.3 units/ml.

Turning to “TGase sample of Hydrogenophaga palleroni (Basonym: Pseudomonas palleroni) (pool or library)”, the Units/ml (putrescine assay) with α-casein [12] came to 0.6 units/ml. Turning to “TGase sample of Kitasatao purpurea (pool or library)”, the Units/ml (putrescine assay) in the test with α-casein [12] stood at 0.3 units/ml. Regarding “TGase sample of Pseudomonas amyloderamosa (pool or library)”, the Units/ml (putrescine assay) with α-casein [12] worked out at 0.08 units/ml.

As for “TGase sample of Pseudomonas putida, DSM 1693 (pool or library)”, in the test with α-casein [12], the Units/ml (putrescine assay) was 0.84 units/ml. Consider “TGase sample of Pseudomonas putida, NCIMB 9869 (pool or library)”, for which, in the test with α-casein [12], the Units/ml (putrescine assay) was 1.4 units/ml. As for “TGase sample of Rothia dentocariosa (pool or library)”, the Units/ml (putrescine assay) with α-casein [12] was determined as 0.9 units/ml.

Consider “TGase sample of Streptomyces nigrescens (pool or library)”, for which the Units/ml (putrescine assay) with α-casein [12] is 0.3 units/ml. With “TGase sample of Streptomyces sioyaensis (pool or library)”, in the test with α-casein [12], the Units/ml (putrescine assay) was found to be 3.3 units/ml.

For the compound “TGase sample of Zymomonas mobilis (pool or library)”, in the test with α-casein [12], the Units/ml (putrescine assay) is 0.36 units/ml.

“transglutaminase from Streptomyces lydicus, NRRL B-3446 (former Streptomyces libani) (enzyme)” had a Units/ml (putrescine assay) with α-casein [12] of 1.3 units/ml.

“transglutaminase preparation (culture broth) of Pleurotus sp. (pool or library)” yielded a Units/ml (putrescine assay) in the test with α-casein [13] of 2.36 Units/ml.

As to “transglutaminase preparation (culture broth) of Podospora tetraspora (pool or library)”, the Units/ml (putrescine assay) with α-casein [13] worked out at 0.3 Units/ml. The compound “transglutaminase preparation (culture broth) of Preussia isomera (pool or library)” registered a Units/ml (putrescine assay) in the test with α-casein [13] of 0.22 Units/ml. Turning to “transglutaminase preparation (culture broth) of Psathyrella condolleana (pool or library)”, the Units/ml (putrescine assay) with α-casein [13] was determined as 0.19 Units/ml. Still for that read-out and setting: as for “transglutaminase preparation (culture broth) of Pycnoporus cinnabarinus (pool or library)”, the figure is 0.14 Units/ml. In the test with α-casein [13], “transglutaminase preparation (culture broth) of Rhizoctonia solani (pool or library)” showed a Units/ml (putrescine assay) of 0.17 Units/ml. On the same count and under the same terms, as for “transglutaminase preparation (culture broth) of Savoryella lignicola (pool or library)”, the figure is 6.24 Units/ml; as for “transglutaminase preparation (culture broth) of Scytinostroma portentosum (pool or library)”, 0.14 Units/ml; as for “transglutaminase preparation (culture broth) of Sporormiella australis (pool or library)”, 0.13 Units/ml. For the compound “transglutaminase preparation (culture broth) of Sporormiella minima (pool or library)”, the Units/ml (putrescine assay) in the test with α-casein [13] stood at 0.2 Units/ml. Regarding “transglutaminase preparation (culture broth) of Stropharia coerulea (pool or library)”, the Units/ml (putrescine assay) with α-casein [13] amounted to 0.16 Units/ml. Turning to “transglutaminase preparation (culture broth) of Talaromyces helicus (pool or library)”, in the test with α-casein [13], the Units/ml (putrescine assay) is 0.23 Units/ml. For the compound “transglutaminase preparation (culture broth) of Trametes hirsuta (pool or library)”, the Units/ml (putrescine assay) with α-casein [13] is 0.21 Units/ml. In turn, “transglutaminase preparation (culture broth) of Trichoderma harzianum (pool or library)” returned a Units/ml (putrescine assay) in the test with α-casein [13] of 0.25 Units/ml. In the test with α-casein [13], “transglutaminase preparation (culture broth) of Tricholoma flavovirens (pool or library)” showed a Units/ml (putrescine assay) of 0.16 Units/ml. In the test with α-casein [13], “transglutaminase preparation (culture broth) of Tricholoma myomyces (pool or library)” registered a Units/ml (putrescine assay) of 0.23 Units/ml.

For “transglutaminase preparation (culture broth) of Valsa pini (pool or library)”, in the test with α-casein [13], the Units/ml (putrescine assay) came to 0.73 Units/ml. In the case of “transglutaminase preparation (culture broth) of Warcupiella spinulosa (pool or library)”, the Units/ml (putrescine assay) with α-casein [13] stood at 0.41 Units/ml.

Turning to “transglutaminase preparation (culture broth) of Xylaria sp (pool or library)”, the Units/ml (putrescine assay) with α-casein [13] is 0.28 Units/ml.
